US6034062A, “Bone morphogenetic protein (BMP)-9 compositions and their uses” (Genetics Institute, Inc., priority 1997, dated 2000)

Key:
liver plasma membranes = assay: [125I]rhBMP-9 binding to liver plasma membranes; conditions: adult rat liver plasma membranes, displaceable by 100-fold excess of unlabeled rhBMP-9
Experimental: (§1) To determine potential target tissues for BMP-9, plasma membrane preparations from adult rat organs are screened for specific [^125 I]rhBMP-9 binding. Plasma membranes are prepared by the methods of Neville, J. Biophys Biochem Cytol 8:412-422 (1960) and Ray, Biochim Biophys Acta 196:1-9 (1970) with the following modifications: Fresh tissues from adult male Long-Evans rats are homogenized with 10 strokes of a teflon homogenizer. Plasma membranes are collected from discontinuous sucrose gradients at 37%/41% sucrose interface and the 41%/45% sucrose interface. Homogenization buffer and sucrose solutions are supplemented with 0.7 μg/ml leupeptin, 2 μg/ml aprotinin and 240 μg/ml pefabloc. Protein levels in plasma membrane preparations are determined by the bicinchoninic acid assay (Pierce, Rockford, Ill.) using immunoglobulin G as a standard.
(§2) BMP-9 binding is carried out by suspending plasma membranes at 30 μg/100μl in binding buffer (136.9 mM NaCl, 5.37 mM KCl, 1.26 mM CaCl2, 0.64 mM MgSO4, 0.34 mM Na2 HPO4, 0.44 mM KH2 PO4, 0.49 mM MgCl2, 25 mM HEPES and 0.5% BSA, pH 7.4) containing o.5 ng [^125 I]rhBMP-9. Binding is allowed to equilibrate by incubation for 16 h at 4° C. […]
(§3) To verify that this specific binding is of high affinity, a more complete displacement profile is determined with lung and kidney plasma membranes.

[1] = Ectopic bone formation in vivo (implant); set-up: species or system rat; conditions: 25 μg/implant, after 10 days of implantation
Description: A modified version of the rat bone formation assay described in Sampath and Reddi, Proc. Natl. Acad. Sci. USA 80:6591-6595 (1983) is used to evaluate bone and/or cartilage activity of the BMP proteins. This modified assay is herein called the Rosen-modified Sampath-Reddi assay. The ethanol precipitation step of the Sampath-Reddi procedure is replaced by dialyzing (if the composition is a solution) or diafiltering (if the composition is a suspension) the fraction to be assayed against water. The solution or suspension is then redissolved in 0.1% TFA, and the resulting solution added to 20mg of rat matrix. A mock rat matrix sample not treated with the protein serves as a control. This material is frozen and lyophilized and the resulting powder enclosed in #5 gelatin capsules. The capsules are implanted subcutaneously in the abdominal thoracic area of 21-49 day old male Long Evans rats. The implants are removed after 7-14 days. […]
The other half of each implant is fixed and processed for histological analysis. […] glycolmethacrylate sections are stained with Von Kossa and acid fuschin to score the amount of induced bone and cartilage formation present in each implant. […] In a modified scoring method, three non-adjacent sections are evaluated from each implant and averaged. […]

kidney plasma membranes = assay: [125I]rhBMP-9 binding to kidney plasma membranes; set-up: species or system rat
Experimental: as §1, §2, §3

[2] = system: Articular cartilage explants from calf carpal joints; assay: Articular cartilage assay (proteoglycan synthesis, sulfate incorporation); type: cell-based
Experimental: The effect of BMP-9 on articular cartilage proteoglycan and DNA synthesis is assayed to determine if BMP-9 is involved in the regulation of metabolism of differentiated articular cartilage.
Articular cartilage explants from calf carpal joints are maintained in DMEM with 50 μg/ml ascorbate, 4 mM glutamine and antibiotics for 3 days. Cytokines (rhBMP-2, rhBMP-4, rhBMP-6 and rhBMP-9, IGF-1, bFGF (1-1000 ng/ml), and TGFβ (1-100 ng/ml)) are added to the medium and culture is continued for 3 more days. Medium is changed daily. Twenty-four hours prior to harvest, explants are pulsed with 50 μCi/ml ^35 SO4 or 25 μCi/ml ^3 H-thymidine. Explants are solubilized and separation of free isotope is performed by gel chromatography. Total DNA of each explant is measured by a spectrophotometric assay.

primary rat hepatocytes = assay: Primary rat hepatocyte 3H-thymidine incorporation; type: cell-based
Experimental: As a first indication of BMP-9 effects on confluent, serum starved HepG2 cells, cell proliferation is examined as determined by ^3 H-thymidine incorporation and cell counting. HepG2 cells are plated at […] in 96 well plates and cultured for 48 hours in DME/0.1% FCS to synchronize the cell cycle are treated for 24 hours with or without BMP-9 in the presence of 0.1% FCS. In ^3 H-thymidine incorporation assays, ^3 H-thymidine was included during the last 4 hours of treatment and cellular DNA was collected with a 96 well plate cell harvester. Proliferation was assayed by quantifying ethanol-precipitable ^3 H-thymidine incorporation by liquid scintillation counting. For cell counting assays, cells were trypsinized and counted with a hemacytometer. […] BMP-9 stimulates ^3 H-thymidine incorporation in HepG2 cells approximately five fold.
To determine if this proliferative effect of BMP-9 was unique to the HepG2 liver tumor cell line, primary rat hepatocytes were tested for effects of BMP-9 on ^3 H-thymidine incorporated as shown in FIG. 4.

B1: BMP-9: recombinant human bone morphogenetic protein-9, mature amino acids #1-#110 of SEQ ID NO:9, expressed in CHO cells (protein)
chain: TRECSRSCPRTAPQRQVRAVTRRTRMAHVAAGSTLARRKRSAGAGSHCQKTSLRVNFEDIGWDSWIIAPKEYEAYECKGGCFFPLADDVTPTKHAIVQTLVHLKFPTKVG
modifications: 125I-iodinated as tracer; unlabelled BMP-9 used as the displacing ligand
Q: For B1, which “specific [125I]rhBMP-9 binding” value (liver plasma membranes) is on record?
A: evident

Q: What about the ectopic bone formation [1] of the same molecule?
A: inducing cartilage and bone tissue

Q: And the “specific [125I]rhBMP-9 binding” value (kidney plasma membranes; adult rat kidney plasma membranes, displaceable by 100-fold excess of unlabeled rhBMP-9)?
A: evident

Q: What about the Kd (kidney plasma membranes; rat kidney plasma membranes) of the same molecule?
A: 0.3 nM

Q: What about the proteoglycan synthesis ([2]; 100 ng/ml, calf articular cartilage explants) of the same molecule?
A: significantly more active in stimulating proteoglycan synthesis

Q: And the “proteoglycan synthesis versus control” value ([2]; dose of 10 ng/ml, p<0.05, calf articular cartilage explants)?
A: stimulates proteoglycan synthesis above control levels

Q: And the 3H-thymidine incorporation (primary rat hepatocytes; confluent primary rat hepatocytes)?
A: confluent primary hepatocytes did not

Q: What about the 3H-thymidine incorporation (primary rat hepatocytes; subconfluent primary rat hepatocytes, 36 hours, serum-free) of the same molecule?
A: stimulated ^3 h-thymidine incorporation in primary hepatocytes, although not as markedly as EGF
